Results published in PMC6555802, “CHML promotes liver cancer metastasis by facilitating Rab14 recycle” (Nature Communications, 2019).

Molecular target: T1, Rab14 (fluorescence titration) (human, UniProt P61106 1-215)
T1 construct: Rab14
Assay: other fluorescence titration; fluorescence titration assay (Supplementary Fig. 8); conditions not stated in the text shown
Details: both partners purified

B1: CHML (fluorescence titration) (natural protein)
chain: MADNLPTEFDVVIIGTGLPESILAAACSRSGQRVLHIDSRSYYGGNWASFSFSGLLSWLKEYQQNNDIGEESTVVWQDLIHETEEAITLRKKDETIQHTEAFCYASQDMEDNVEEIGALQKNPSLGVSNTFTEVLDSALPEESQLSYFNSDEMPAKHTQKSDTEISLEVTDVEESVEKEKYCGDKTCMHTVSDKDGDKDESKSTVEDKADEPIRNRITYSQIVKEGRRFNIDLVSKLLYSQGLLIDLLIKSDVSRYVEFKNVTRILAFREGKVEQVPCSRADVFNSKELTMVEKRMLMKFLTFCLEYEQHPDEYQAFRQCSFSEYLKTKKLTPNLQHFVLHSIAMTSESSCTTIDGLNATKNFLQCLGRFGNTPFLFPLYGQGEIPQGFCRMCAVFGGIYCLRHKVQCFVVDKESGRCKAIIDHFGQRINAKYFIVEDSYLSEETCSNVQYKQISRAVLITDQSILKTDLDQQTSILIVPPAEPGACAVRVTELCSSTMTCMKDTYLVHLTCSSSKTAREDLESVVKKLFTPYTETEINEEELTKPRLLWALYFNMRDSSGISRSSYNGLPSNVYVCSGPDCGLGNEHAVKQAETLFQEIFPTEEFCPPPPNPEDIIFDGDDKQPEAPGTNNVVMAKLESSEESKNLESPEKHLQN
notes: choroideremia-like (CHML, REP2)
B1 gave a Kd of ~0.36 nM.
